According to patent US20200079833A1 (AstraZeneca / MedImmune, published 2020):
Starred links: 1 amine or outer side, 2 acyl side, 3 side chain; linkers in the order of their positions; H or OH if unused. Non-standard residues stand in square brackets, D forms with d. Groups on a side chain read outwards from the residue. Primed or numbered codes have the meaning given here. No end group written: not given here. *: point of attachment. γGlu = O=C(O)[C@H](CCC(=O)[*:2])N[*:1]; Stearoyl = CCCCCCCCCCCCCCCCCC(=O)*; αMeF = C[C@](N)(Cc1ccccc1)C(=O)O; αMeK = C[C@](N)(CCCCN)C(=O)O; αMeS = C[C@](N)(CO)C(=O)O; PEG2′ = not defined here; Aib = CC(C)(N)C(=O)O; Ahx = NCCCCCC(=O)O

T1: glucose-dependent insulinotropic peptide (gastric inhibitory polypeptide) receptor (GIPR) (human, UniProt P48546 22-466)
T1 sequence (looked up): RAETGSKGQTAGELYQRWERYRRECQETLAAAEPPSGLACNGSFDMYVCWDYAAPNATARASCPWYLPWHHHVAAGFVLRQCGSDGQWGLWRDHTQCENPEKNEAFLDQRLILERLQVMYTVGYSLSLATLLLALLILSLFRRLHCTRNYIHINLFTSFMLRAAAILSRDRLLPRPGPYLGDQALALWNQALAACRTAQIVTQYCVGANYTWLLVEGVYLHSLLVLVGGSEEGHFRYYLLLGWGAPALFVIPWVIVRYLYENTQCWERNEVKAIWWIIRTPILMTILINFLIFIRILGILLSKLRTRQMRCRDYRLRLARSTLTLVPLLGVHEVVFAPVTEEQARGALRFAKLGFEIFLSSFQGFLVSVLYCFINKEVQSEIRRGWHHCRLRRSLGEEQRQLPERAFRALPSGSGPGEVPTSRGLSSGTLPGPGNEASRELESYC


Columns and labels:
Assay in all cases: cell-based or functional assay
GLP-1 receptor (GLP-1R) = GLP-1 receptor (GLP-1R) (human, UniProt P43220 24-463)
[1] = molecular target: T1, glucose-dependent insulinotropic …
glucagon receptor (GCGR) = glucagon receptor (GCGR) (human, UniProt P47871 26-477)
Chain of glucagon receptor (GCGR) (P47871 26-477): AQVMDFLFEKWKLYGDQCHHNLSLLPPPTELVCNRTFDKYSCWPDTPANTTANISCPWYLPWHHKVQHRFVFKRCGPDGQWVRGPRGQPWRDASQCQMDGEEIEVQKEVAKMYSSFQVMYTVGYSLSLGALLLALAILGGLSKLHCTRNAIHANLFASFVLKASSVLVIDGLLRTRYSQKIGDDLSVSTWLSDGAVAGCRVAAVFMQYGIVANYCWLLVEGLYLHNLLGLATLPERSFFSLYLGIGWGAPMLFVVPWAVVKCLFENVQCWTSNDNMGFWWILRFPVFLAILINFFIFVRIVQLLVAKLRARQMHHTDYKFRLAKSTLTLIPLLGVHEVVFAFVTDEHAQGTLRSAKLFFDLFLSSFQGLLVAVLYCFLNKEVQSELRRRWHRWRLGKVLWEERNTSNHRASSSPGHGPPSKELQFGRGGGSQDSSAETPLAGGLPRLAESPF

Row | Binder | Primary assay EC50 (cAMP), GLP-1R n1 (GLP-1 receptor (GLP-1R)) [nM] | Primary assay EC50 (cAMP), GLP-1R n2 (GLP-1 receptor (GLP-1R)) [nM] | Primary assay EC50 (cAMP), Mean pM GLP-1R (GLP-1 receptor (GLP-1R)) [pM] | Primary assay EC50 (cAMP), GIP-R, first run [1] [nM] | Primary assay EC50 (cAMP), GIP-R, second run [1] [nM] | Primary assay EC50 (cAMP), Gluc-R, first run (glucagon receptor (GCGR)) [nM] | Primary assay EC50 (cAMP), Gluc-R, second run (glucagon receptor (GCGR)) [nM]
1 | H[Aib]EGS[αMeF]TSDV[αMeS]S[αMeF]LEGEAAK([Ahx-Stearoyl])E[αMeF]IA[αMeF]VV[αMeK]GG-NH2 (N-terminus assumed; SMILES CCCCCCCCCCCCCCCCCC(=O)NCCCCCC(=O)NCCCC[C@H](NC(=O)[C@H](C)NC(=O)[C@H](C)NC(=O)[C@H](CCC(=O)O)NC(=O)CNC(=O)[C@H](CCC(=O)O)NC(=O)[C@H](CC(C)C)NC(=O)[C@](C)(Cc1ccccc1)NC(=O)[C@H](CO)NC(=O)[C@](C)(CO)NC(=O)[C@@H](NC(=O)[C@H](CC(=O)O)NC(=O)[C@H](CO)NC(=O)[C@@H](NC(=O)[C@](C)(Cc1ccccc1)NC(=O)[C@H](CO)NC(=O)CNC(=O)[C@H](CCC(=O)O)NC(=O)C(C)(C)NC(=O)[C@@H](N)Cc1c[nH]cn1)[C@@H](C)O)C(C)C)C(=O)N[C@@H](CCC(=O)O)C(=O)N[C@@](C)(Cc1ccccc1)C(=O)N[C@H](C(=O)N[C@@H](C)C(=O)N[C@@](C)(Cc1ccccc1)C(=O)N[C@H](C(=O)N[C@H](C(=O)N[C@@](C)(CCCCN)C(=O)NCC(=O)NCC(N)=O)C(C)C)C(C)C)[C@@H](C)CC) [SEQ ID NO 158] | 0.14 | 0.16 | 148 | 28 | 28 | 28 | 28
2 | H[Aib]EGS[αMeF]TSDV[αMeS]S[αMeF]LEGEAAK([γGlu-γGlu-γGlu-Stearoyl])E[αMeF]IA[αMeF]VV[αMeK]GG-NH2 (N-terminus assumed; SMILES CCCCCCCCCCCCCCCCCC(=O)N[C@@H](CCC(=O)N[C@@H](CCC(=O)N[C@@H](CCC(=O)NCCCC[C@H](NC(=O)[C@H](C)NC(=O)[C@H](C)NC(=O)[C@H](CCC(=O)O)NC(=O)CNC(=O)[C@H](CCC(=O)O)NC(=O)[C@H](CC(C)C)NC(=O)[C@](C)(Cc1ccccc1)NC(=O)[C@H](CO)NC(=O)[C@](C)(CO)NC(=O)[C@@H](NC(=O)[C@H](CC(=O)O)NC(=O)[C@H](CO)NC(=O)[C@@H](NC(=O)[C@](C)(Cc1ccccc1)NC(=O)[C@H](CO)NC(=O)CNC(=O)[C@H](CCC(=O)O)NC(=O)C(C)(C)NC(=O)[C@@H](N)Cc1c[nH]cn1)[C@@H](C)O)C(C)C)C(=O)N[C@@H](CCC(=O)O)C(=O)N[C@@](C)(Cc1ccccc1)C(=O)N[C@H](C(=O)N[C@@H](C)C(=O)N[C@@](C)(Cc1ccccc1)C(=O)N[C@H](C(=O)N[C@H](C(=O)N[C@@](C)(CCCCN)C(=O)NCC(=O)NCC(N)=O)C(C)C)C(C)C)[C@@H](C)CC)C(=O)O)C(=O)O)C(=O)O) [SEQ ID NO 157] | 0.24 | 0.22 | 227 | 26 | 26 | 26 | 26
3 | H[Aib]EGS[αMeF]TSDV[αMeS]S[αMeF]LEGEAAK([γGlu-γGlu-Stearoyl])E[αMeF]IA[αMeF]VV[αMeK]GG-NH2 (N-terminus assumed; SMILES CCCCCCCCCCCCCCCCCC(=O)N[C@@H](CCC(=O)N[C@@H](CCC(=O)NCCCC[C@H](NC(=O)[C@H](C)NC(=O)[C@H](C)NC(=O)[C@H](CCC(=O)O)NC(=O)CNC(=O)[C@H](CCC(=O)O)NC(=O)[C@H](CC(C)C)NC(=O)[C@](C)(Cc1ccccc1)NC(=O)[C@H](CO)NC(=O)[C@](C)(CO)NC(=O)[C@@H](NC(=O)[C@H](CC(=O)O)NC(=O)[C@H](CO)NC(=O)[C@@H](NC(=O)[C@](C)(Cc1ccccc1)NC(=O)[C@H](CO)NC(=O)CNC(=O)[C@H](CCC(=O)O)NC(=O)C(C)(C)NC(=O)[C@@H](N)Cc1c[nH]cn1)[C@@H](C)O)C(C)C)C(=O)N[C@@H](CCC(=O)O)C(=O)N[C@@](C)(Cc1ccccc1)C(=O)N[C@H](C(=O)N[C@@H](C)C(=O)N[C@@](C)(Cc1ccccc1)C(=O)N[C@H](C(=O)N[C@H](C(=O)N[C@@](C)(CCCCN)C(=O)NCC(=O)NCC(N)=O)C(C)C)C(C)C)[C@@H](C)CC)C(=O)O)C(=O)O) [SEQ ID NO 156] | 0.11 | 0.1 | 105 | 27 | 27 | 27 | 27
4 | H[Aib]EGS[αMeF]TSDV[αMeS]S[αMeF]LEGEAAK([Ahx-Ahx-Stearoyl])E[αMeF]IA[αMeF]VV[αMeK]GG-NH2 (N-terminus assumed; SMILES CCCCCCCCCCCCCCCCCC(=O)NCCCCCC(=O)NCCCCCC(=O)NCCCC[C@H](NC(=O)[C@H](C)NC(=O)[C@H](C)NC(=O)[C@H](CCC(=O)O)NC(=O)CNC(=O)[C@H](CCC(=O)O)NC(=O)[C@H](CC(C)C)NC(=O)[C@](C)(Cc1ccccc1)NC(=O)[C@H](CO)NC(=O)[C@](C)(CO)NC(=O)[C@@H](NC(=O)[C@H](CC(=O)O)NC(=O)[C@H](CO)NC(=O)[C@@H](NC(=O)[C@](C)(Cc1ccccc1)NC(=O)[C@H](CO)NC(=O)CNC(=O)[C@H](CCC(=O)O)NC(=O)C(C)(C)NC(=O)[C@@H](N)Cc1c[nH]cn1)[C@@H](C)O)C(C)C)C(=O)N[C@@H](CCC(=O)O)C(=O)N[C@@](C)(Cc1ccccc1)C(=O)N[C@H](C(=O)N[C@@H](C)C(=O)N[C@@](C)(Cc1ccccc1)C(=O)N[C@H](C(=O)N[C@H](C(=O)N[C@@](C)(CCCCN)C(=O)NCC(=O)NCC(N)=O)C(C)C)C(C)C)[C@@H](C)CC) [SEQ ID NO 159] | 0.28 | 0.23 | 254 | 27 | 27 | 27 | 27

Results, then the binder that gave them:

Row | Primary assay EC50 (cAMP), GLP-1R n1 (GLP-1 receptor (GLP-1R)) [nM] | Primary assay EC50 (cAMP), GLP-1R n2 (GLP-1 receptor (GLP-1R)) [nM] | Primary assay EC50 (cAMP), Mean pM GLP-1R (GLP-1 receptor (GLP-1R)) [pM] | Primary assay EC50 (cAMP), GIP-R, first run [1] [nM] | Primary assay EC50 (cAMP), GIP-R, second run [1] [nM] | Primary assay EC50 (cAMP), Gluc-R, first run (glucagon receptor (GCGR)) [nM] | Primary assay EC50 (cAMP), Gluc-R, second run (glucagon receptor (GCGR)) [nM] | Binder
5 | 0.39 | 0.32 | 350 | 26 | 26 | 26 | 26 | H[Aib]EGS[αMeF]TSDV[αMeS]S[αMeF]LEGEAAK([Ahx-Ahx-Ahx-Stearoyl])E[αMeF]IA[αMeF]VV[αMeK]GG-NH2 (N-terminus assumed; SMILES CCCCCCCCCCCCCCCCCC(=O)NCCCCCC(=O)NCCCCCC(=O)NCCCCCC(=O)NCCCC[C@H](NC(=O)[C@H](C)NC(=O)[C@H](C)NC(=O)[C@H](CCC(=O)O)NC(=O)CNC(=O)[C@H](CCC(=O)O)NC(=O)[C@H](CC(C)C)NC(=O)[C@](C)(Cc1ccccc1)NC(=O)[C@H](CO)NC(=O)[C@](C)(CO)NC(=O)[C@@H](NC(=O)[C@H](CC(=O)O)NC(=O)[C@H](CO)NC(=O)[C@@H](NC(=O)[C@](C)(Cc1ccccc1)NC(=O)[C@H](CO)NC(=O)CNC(=O)[C@H](CCC(=O)O)NC(=O)C(C)(C)NC(=O)[C@@H](N)Cc1c[nH]cn1)[C@@H](C)O)C(C)C)C(=O)N[C@@H](CCC(=O)O)C(=O)N[C@@](C)(Cc1ccccc1)C(=O)N[C@H](C(=O)N[C@@H](C)C(=O)N[C@@](C)(Cc1ccccc1)C(=O)N[C@H](C(=O)N[C@H](C(=O)N[C@@](C)(CCCCN)C(=O)NCC(=O)NCC(N)=O)C(C)C)C(C)C)[C@@H](C)CC) [SEQ ID NO 160]
6 | 0.053 | 0.055 | 54 | 26 | 26 | 26 | 26 | H[Aib]EGS[αMeF]TSDV[αMeS]S[αMeF]LEGEAAK([PEG2′-PEG2′-Stearoyl])E[αMeF]IA[αMeF]VV[αMeK]GG-NH2 [SEQ ID NO 162]
7 | 0.063 | 0.049 | 56 | 25 | 25 | 25 | 25 | H[Aib]EGS[αMeF]TSDV[αMeS]S[αMeF]LEGEAAK([PEG2′-PEG2′-PEG2′-Stearoyl])E[αMeF]IA[αMeF]VV[αMeK]GG-NH2 [SEQ ID NO 163]
8 | 0.16 | 0.062 | 112 | 27 | 27 | 27 | 27 | H[Aib]EGS[αMeF]TSDV[αMeS]S[αMeF]LEGEAAK([PEG2′-Stearoyl])E[αMeF]IA[αMeF]VV[αMeK]GG-NH2 [SEQ ID NO 161]
